The target in the assay is T1, Cpn0803 (Chlamydia pneumoniae, UniProt Q9Z7A3 1-184).
T1 construct: Prey in an E. coli lysate
T1 sequence: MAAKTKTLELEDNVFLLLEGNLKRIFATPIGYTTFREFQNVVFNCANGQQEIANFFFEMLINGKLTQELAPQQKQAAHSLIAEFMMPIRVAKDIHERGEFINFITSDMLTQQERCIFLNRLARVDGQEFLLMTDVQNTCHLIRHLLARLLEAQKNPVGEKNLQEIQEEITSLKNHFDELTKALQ
Briefly: GST pull-down from E. coli lysate, high salt wash.

B1: GST-CopB1-255 (other)
chain: MSISSSSGPDNQKNIMSQVLTSTPQGVPQQDKLSGNETKQIQQTRQGKNTEMESDATIAGASGKDKTSSTTKTETAPQQGVAAGKESSESQKAGADTGVSGAAATTASNTATKIAMQTSIEEASKSMESTLESLQSLSAAQMKEVEAVVVAALSGKSSGSAKLETPELPKPGVTPRSEVIEIGLALAKAIQTLGEATKSALSNYASTQAQADQTNKLGLEKQAIKIDKEREEYQEMKAAEQKSKDLEGTMDTVNT
notes: Bait on glutathione-agarose beads; also called recombinant GST-CopB1-255; GST-CopB fragment; not shown: glutathione-S-transferase (GST) fusion tag
As for B1, the binding result is recorded as “no binding”.
